# Test results taken from patent US20220119492A1 (MEDIKINE, published 2022).
# T1: human IL-2Rβ (CD122 protein, Fc Tag) (27-239) (human, UniProt P14784 27-239)
# T1 construct: range 27-239; Bought protein; also called hu-IL-2Rβ subunit; IL-2Rβ subunit; not shown: Fc tag of the bought protein
# T1 sequence (looked up): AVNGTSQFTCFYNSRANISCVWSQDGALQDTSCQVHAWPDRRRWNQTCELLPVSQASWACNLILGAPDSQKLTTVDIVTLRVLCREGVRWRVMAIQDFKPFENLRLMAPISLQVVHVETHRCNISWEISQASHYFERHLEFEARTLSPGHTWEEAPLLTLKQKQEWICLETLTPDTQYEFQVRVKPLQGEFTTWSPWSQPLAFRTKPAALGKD
# B1: IL-2Rβ ligand SEQ ID NO: 1044 (peptide)
# peptide: RSCYYKRPRLWCSE
# notes: Used as synthetic peptide and as phage clone; also called family 4
# B2: IL-2Rβ ligand SEQ ID NO: 170 (peptide)
# peptide: QICDVGQWWPDCQV
# notes: Used as phage clone; also called family 2A
# B3: IL-2Rβ ligand SEQ ID NO: 1034 (peptide)
# peptide: CGMAIGDLCMWT
# notes: Used as phage clone; also called family 2C
# B4: IL-2Rβ ligand SEQ ID NO: 58 (peptide)
# peptide: YDCRIAQVGELCDL
# notes: Used as synthetic peptide and as phage clone; also called family 1
# Target: T1, human IL-2Rβ (CD122 protein, Fc Tag) …
# Assay: competitive binding ELISA (Example 28)
# Experimental: In this example, IL-2R ligands were diluted to 2-times final assay concentration in PBT (1×PBS pH 7.2, 0.5% Bovine Serum Albumin, 0.05% Tween®20) and serially diluted. Fifty (50) μL was added to the appropriate wells. The plates were then incubated at 4° C. for 1 hr.
# Without washing, fifty (50) μL of representative phage were added to the assay wells (phage tracer). The plates were then incubated at 4° C. for 45 min.
row,Binder,IC50
1,B1,< 10 µM
2,B2,< 10 µM
3,RWGDVGDLLMPL (also called family 2C) [IL-2Rβ ligand SEQ ID NO: 1042],< 10 µM
4,NMCLVGDYWPSCQI (also called family 2A) [IL-2Rβ ligand SEQ ID NO: 169],< 10 µM
5,B3,< 10 µM
6,B4,< 10 µM
